These results are taken from patent US20060270599A1, “Inhibiting angiogenesis using molecules that enhance plasmin formation or prolong plasmin activity” (Crossbeta Biosciences B.V., priority 2000, published 2006).

In test [1] the test system is mouse C26 colon carcinoma. Briefly: Subcutaneous tumor growth of mouse C26 colon carcinoma. It is filed as in vivo. The settings on record: BALB/c mice, eleven days after tumor cell inoculation, mean ± standard error of the mean, control 2719±366. Here is the method:
FIG. 1: Effect of fibrin degradation products (FDP) on tumor growth. For comparison, treatments with Alteplase® (recombinant tPA) or endostatin is shown. FDP was given continuously using Alzet® pumps (Alza, Palo Alto, Calif., USA, type 2001 or 2002) loaded with 200 μl FDP (5 mg/ml). In addition, every other day, FDP was given subcutaneously at a dose of 7 mg/kg.
A model of subcutaneous tumor growth of a mouse C26 colon carcinoma was used to evaluate the effects of FDP. Eleven days after tumor cell inoculation, tumors of the control group had reached a volume of 2719±366 mm^3. In mice treated with FDP, the mean tumor growth was 719±188 mm^3. […] Treatment with tPA, which generates plasmin, suppressed tumor growth to a similar degree (tumor volume 492±215 mm^3) as FDP.
The mouse colon adenocarcinoma cell line C-26 was maintained as a monolayer culture in Dulbecco's Minimal Essential Medium (DMEM) supplemented with 10% heat-inactivated fetal calf serum, penicillin (100 units/ml), and streptomycin (100 μg/ml) in a 5% CO2 environment. […] The presence of single cell suspension was confirmed by phase contrast microscopy, and cell viability was determined by trypan blue staining. […]
The statistical significance of differences between groups was calculated by applying Student's 2-tailed t-test. […]

Test [2] deals with tPA-mediated plasmin formation from plasminogen (Homo sapiens, UniProt P00750). Description: Measurement of plasmin activity (tPA-mediated plasmin generation, S-2251). The class given is biochemical. The following applies: 50 μg/ml plasminogen, 30 U/ml tPA, 37° C. (FIG. 3). How it is done:
FIG. 3: Effect on plasmin activity of (A) endostatin, (B) human vitronectin fragment+(a.a. 262-367) (SEQ ID NO:1), (C) FDP, and (D) peptide derived from FDP (a.a. 148-160) (SEQ ID NO: 2).
Effect of FDP, FDP-derived synthetic peptide (a.a. 148-160) (SEQ ID NO:2), fragment (a.a. 262-367) vitronectin (SEQ ID NO:1), and endostatin on plasmin generation. Various concentrations were added.
Reactions were performed at 37° C. in HBS buffer (20 mM Hepes, 4 mM KCl, 137 mM NaCl, 3 mM CaCl2, 0.1% BSA, pH 7.4) containing 50 μg/ml plasminogen with or without the addition of endostatin or FDP. The reactions were started by the addition of tPA at a final concentration of 30 U/ml. At several time points, 20 μl samples were taken and stopped with 20 μl buffer containing 150 mM εACA and 150 mM EDTA. Plasmin activity was determined in 96-well plates after the addition of 20 μl chromogenic substrate S-2251 at a final concentration of 1.6 mM. Increase in absorbance was measured at 405 nm for 10 min.

B1: endostatin: Recombinant murine endostatin produced by Escherichia coli (protein, UniProt P39061 1591-1774, looked up)
Endostatin: HTHQDFQPVLHLVALNTPLSGGMRGIRGADFQCFQQARAVGLSGTFRAFLSSRLQDLYSIVRRADRGSVPIVNLKDEVLSPSWDSLFSGSQGQLQPGARIFSFDGRDVLRHPAWPQKSVWHGSDPSGRRLMESYCETWRTETTGATGQASSLLSGRLLEQKAASCHNSYIVLCIENSFMTSFSK
modifications: Endostatin
notes: Recombinant murine endostatin produced by Escherichia coli
Molecule B1 gave a tumor volume in test [1] of 1112±372 mm^3. Moreover, in test [2], the “stimulation of tPA-mediated plasmin formation” value is given as “ability to stimulate tPA-mediated plasmin formation”.

B2: tPA: Alteplase (recombinant tPA), tissue plasminogen activator (protein, UniProt P00750 36-562, looked up)
Tissue-type plasminogen …: SYQVICRDEKTQMIYQQHQSWLRPVLRSNRVEYCWCNSGRAQCHSVPVKSCSEPRCFNGGTCQQALYFSDFVCQCPEGFAGKCCEIDTRATCYEDQGISYRGTWSTAESGAECTNWNSSALAQKPYSGRRPDAIRLGLGNHNYCRNPDRDSKPWCYVFKAGKYSSEFCSTPACSEGNSDCYFGNGSAYRGTHSLTESGASCLPWNSMILIGKVYTAQNPSAQALGLGKHNYCRNPDGDAKPWCHVLKNRRLTWEYCDVPSCSTCGLRQYSQPQFRIKGGLFADIASHPWQAAIFAKHRRSPGERFLCGGILISSCWILSAAHCFQERFPPHHLTVILGRTYRVVPGEEEQKFEVEKYIVHKEFDDDTYDNDIALLQLKSDSSRCAQESSVVRTVCLPPADLQLPDWTECELSGYGKHEALSPFYSERLKEAHVRLYPSSRCTSQHLLNRTVTDNMLCAGDTRSGGPQANLHDACQGDSGGPLVCLNDGRMTLVGIISWGLGCGQKDVPGVYTKVTNYLDWIRDNMRP
Consider B2, for which, in test [1], the tumor volume was 492±215 mm^3.
